Assay results reported in article PMC6211762.

Target: Macrobrachium rosenbergii nodavirus (MrNV) capsid protein, recombinant, assembled into virus-like particles (Macrobrachium rosenbergii nodavirus)
Experiment: cryo-EM structure; MrNV VLPs at approximately 0.2 mg/ml, vitrified on thin continuous carbon films; Titan Krios; icosahedral reconstruction at 3.3 Å from 40,883 particles; atomic model of the asymmetric unit

Macrobrachium rosenbergii nodavirus (MrNV) capsid protein, recombinant, assembled into virus-like particles (natural protein)
stoichiometry N: 180
